From patent US20110008279A1, “Methods and Compositions Relating to Adhesins as Adjuvants” (priority 2005, published 2011)
Values joined by “and” are separate entries in the source; they are usually repeats but may differ in a detail not shown here. Equal values may be shown once. Read-outs that look alike come from different tables or passages of the source.

Tests used:
[1] = target: specific NadA binding sites on monocytes (human)
[2] = target: high affinity binding sites for NadA on immature mo-DCs (human); assay: flow cytometry of Alexa-NadA on mo-DCs, Scatchard plot
[3] = target: low affinity binding sites for NadA on immature mo-DCs (human); assay: as above
[4] = target: high affinity binding sites for NadA on immature mo-DCs (human); assay: flow cytometry of Alexa-NadA on mo-DCs, Scatchard analysis
[5] = target: low affinity binding sites for NadA on immature mo-DCs (human); assay: as above
[6] = target: specific NadA binding sites on monocytes (human); assay: NadA-I125 binding to monocytes, Scatchard plot; value counted on the homo-trimer
[7] = target: NadA-specific binding sites on macrophage (human); assay: flow cytometry (MFI), Alexa-NadA displaced by unlabelled NadA on macrophages, 37° C
mo-DCs [8] = assay: Expression of maturation markers on mo-DCs (flow cytometry); format: cell-based, human; conditions: flagellin 10 μg/ml; for CD86 expression: LPS 0.1 μg/ml
Experimental: Reagents used were tested for low endotoxin contamination using the Limulus amoebocyte assay (Sigma). Dendritic cells were generated from human peripheral blood mononuclear cells (PBMC) as described previously. In brief, PBMC were isolated from buffy coats of healthy donors by Ficoll-Paque Plus density gradient centrifugation (Amersham Pharmacia Biotech AB). Separate monocyte and T-cell fractions were obtained from PBMCs by Percoll density gradient centrifugation (Amersham Pharmacia Biotech AB). […] DC were obtained by 6-d culture adherent monocytes in medium with 20 ng/ml IL-4 (5×10^6 units/mg, Peprotech) and 50 ng/ml GM-CSF (1×10^7 units/mg, Peprotech). Cytokines were added again on day 4 in RPMI-1640 medium supplemented with 10% FBS. […] After 24 h cells were harvested and analysed. Culture supernatants were collected frozen in liquid nitrogen and conserved at −80° C. for cytokine analysis.
After differentiation, DC were routinely stained with phycoerytrin conjugated monoclonal antibodies to human CD14, CD1a, CD83, CD86 (B7.2), CD80 (B7.1), MHC II (HLA-DR), purchased from BD-Pharminghen and Caltag. In parallel, cells were stained with the isotype matched control mAb. Cells were immunostained with the proper dilution of PE-conjugated anti human monoclonal antibodies at 4° C. for 30 min in 100 μl of phosphate-buffered saline pH 7.2 (PBS, GIBCO BRL) containing 1% FBS and 0.1% NaN3 (FACS buffer). After washing, propidium iodide was added to exclude dead cells and cell fluorescence intensities of the gated populations were measured with a EPICS XL-MCL (Coulter) flow cytometer and analyzed with EXPO 32ADC XL 3COLOR or WinMDI 2.8. software. Data were collected on 10000-20000 events.

mo-DCs [9] = assay: Cytokine and chemokine secretion by mo-DCs (Bio-Plex, ELISA); format: cell-based, human; conditions: after IFN-γ priming; flagellin 10 μg/ml, CpG 10 μg/ml, maximal LPS
Experimental: Reagents used were tested for low endotoxin contamination using the Limulus amoebocyte assay (Sigma). Dendritic cells were generated from human peripheral blood mononuclear cells (PBMC) as described previously. In brief, PBMC were isolated from buffy coats of healthy donors by Ficoll-Paque Plus density gradient centrifugation (Amersham Pharmacia Biotech AB). Separate monocyte and T-cell fractions were obtained from PBMCs by Percoll density gradient centrifugation (Amersham Pharmacia Biotech AB). Residual T and B cells were removed from monocyte fraction by plastic adherence of 3×10^6 cells per well in 6-well plates (Costar) resulting in CD14^+ monocyte populations of >95% purity (determined by flow cytometry). DC were obtained by 6-d culture adherent monocytes in medium with 20 ng/ml IL-4 (5×10^6 units/mg, Peprotech) and 50 ng/ml GM-CSF (1×10^7 units/mg, Peprotech). Cytokines were added again on day 4 in RPMI-1640 medium supplemented with 10% FBS. Following this procedure more than 90% cells belonged to the immature DC phenotype (CD1a^+, HLADRlow, CD14^−, CD83^−, CD86^low, CD80^low). On day 5 cells were treated with nothing or with recombinant human IFN-γ (1000 U/ml) for 18 h before stimulation with NadA (0.0375-5 μM) or LPS (1 μg/ml). After 24 h cells were harvested and analysed. Culture supernatants were collected frozen in liquid nitrogen and conserved at −80° C. for cytokine analysis.
The antibody pairs used, directed against different non-competing epitopes of a given cytokine, were purchased from BioRad. Calibration curves from recombinant cytokine standard were prepared with four-fold dilution steps in RPMI-1640 medium containing 10% FBS. Assays were carried out in 96-well sterile pre-wetted filter plates at room temperature and protected from light. A mixture containing 5000 microspheres per cytokine was incubated together with standard or sample in a final volume of 50 μl for 30 min, under continuous shaking (300 rpm). After three washes by vacuum filtration with Bio-Plex washing buffer a cocktail of biotinylated antibodies diluted in Bio-Plex detection antibody diluent was added (25 μl to each well). After a 30 minutes incubation and washing, Streptavidin-PE diluted in Bio-Plex Assay buffer was added (50 μl per well). At the end of 10 minutes incubation under continuous shaking and after washing the fluorescence intensity of the beads was measured in a final volume of 125 μl of Bio-Plex assay buffer. Data analysis was done with Bio-Plex Manager software using a five-parametric-curve fitting. The detection limits were […].
IL12(p40) was measured by capture enzyme-linked immunosorbent assay (ELISA) with antibody pairs and cytokine standard purchased from Bender MedSystems. The concentrations of IL12(p40) in the cell-free supernatants were determined with ELISA kits according to the manufacturer's instructions. The detection limit of the assays was […].

mo-DCs [10] = assay: as above; format: cell-based, human; conditions: even after IFN-γ priming; flagellin, LPS 100 μg/ml (so in the source)

Row | Substance | Kd [1] | decrease of the signal with 5 uM unlabelled NadA [1] | Kd [2] | fraction of binding sites [2] | Kd [3] | fraction of binding sites [3] | Kd [4] | Kd [5] | Kd [6] | decrease of the signal with unlabelled NadA [7] | CD86 expression on co-stimulation with R-848 (mo-DCs [8]; R-848 1 μM, after IFN-γ priming, NadA 1.5 μM) | CD86 expression (mo-DCs [8]; after IFN-γ priming, CpG up to 10 μg/ml) | CD86 expression (mo-DCs [8]; no IFN-γ priming) | IL-12(p70) secretion (mo-DCs [9]) | IL-12 secretion with R-848 co-stimulation (mo-DCs [10])
1 | NadAΔ351-405 (from UniProt P0DV44 24-350) | 3 µM | -50% | 0.05 to 0.1 µM | 30% and 20% | 3 µM and 5 µM | 70 to 80% | 0.09 µM | 4 µM | 1 µM | -50% |  |  |  |  | 
2 | flagellin [reference compound] |  |  |  |  |  |  |  |  |  |  | not further increased | comparable to that induced by NadA 1.5 μM | significant increase | comparable to that induced by both 0.25 μM (9 μg/ml) and 1.5 μM (50 μg/ml) NadA | ineffective
